# Measurements as given in the nanobody polyreactivity screen of Harvey et al. (2022).
# Test: yeast display, Sf9 membrane polyspecificity reagent, FACS + sequencing; frameworks hold sequencing errors
# Outline: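 Galactose induction of a Saccharomyces cerevisiae BJ5465 synthetic nanobody display library ran 36–48 hours. The cells were then stained for 1 hour at 4 °C with 10% biotinylated, detergent-solubilized Sf9 membrane reagent, pulled down on streptavidin microbeads and FACS-sorted into low and high (top ~1%) gates on expression and reagent-binding fluorescence. Labels for polyreactivity follow the gate of origin.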
row,Sequence,polyreactivity (PSR sort gate)
1,QVQLVESGAGLVQAGGSLRLSCAASGRIFRCYAMGWYRQAPGKERELVAAIRSGGSTNYADSVKGRFTISRDNAKNTVYLQMLSLKPEDTAVYYCATQNIYRIHQSLWGWYGYWGQGTQVTVSS,low polyreactivity
2,QVQLVESGGGLVQAGGSLRLSCAASGSTVRRNTMGWYRQAPGKERELVAGISSSGGSTYYADSVKGRFTISRDNAKNTVYLQINSLKPEDTAVYYCAARFYVSYVGYNYWGQGTQVTVSS,high polyreactivity
3,QVQLVESGGGLVQAGGSLRLSCAASGSTFPGYAMGWYRQAPGKERELVAAITTSGGSTYYADSVKGRFTISRDNAKNTVYLQMNSLKPEDTAVYYCAADYWYYLDAGYYWGQGTQVTVSS,low polyreactivity
4,QVQLVESGGGLVQAGGSLRLSCAASGFIFDRYAMGWYRQAPGKERELVAAIDTASSTNYADSVKGRFTISRDNAKNTVYLQMNSLKPEDTGVYYCNASGYYYVIYWKVSNYNYWGQGTQVTVSS,low polyreactivity
5,QVQLVESGGGLVQAGGSLRLSCAASGSTFVTNDMGWYRQAPAKERELVAAISSGTSTNYADSVKGRFTISRDNAKNTVYLQMNSLKPEDTAVYYCAADSLKRYDYWGHGTQVTVSS,low polyreactivity
6,QVQLVESGGGLVQAGGSLRLSCAASGNTFYGYAMGWYRQAPGKERELVASSTLSGDSTYYADSVKGRFTISRDNAKNTVYLQMNSLKPEDTAVYYCAGVYTYPLGYYHYTYDYWGQGTQVTVSS,low polyreactivity
7,QVQLVESGGGLVQAGGSLRLSCAASGRTIDHYAMGWYRQAPGKERELVAAISTTGGSTYYADSVKGRFTISRDNAKNTVYLQMNSLKPEDTAVYYCAARGLRTGGYWGQGTQVTVSS,high polyreactivity
8,QVQLVESGGGLVQAGGSLRLSCAASGSTFPTYAMGWYRQAPGKERELVAAISRSGGRTYYADSVKGRFTISRDNAKNTVYLQMNSLKPEDTAVYYCAAQYRLSGGYNYDYWGQGTQVTVSS,high polyreactivity
9,QVQLVESGGGLVQAGGSLRLSCAATGSIISVNTMGWYRQAPGKERELVATIRTGDSTNYADSVKGRFTISRDNAKYTVYLQMNSLKPEDTAVYYCAAEWSSLNFDYWGQGTQVTVSS,low polyreactivity
10,QVQLVESGGGLVQAGGSLRLSCAASGFTLRVNAMGWYRHPPGKERELVAAISDSGGDTYYADSVKGRFTISRDNAKNTVYLQMNSLKPEDTAVYYCAADDGSENDYWGQGTQVTVSS,low polyreactivity
11,QVQLVESGGGLVQAGGSLRLSCAASGSTFYYYALGWYRQAPGKERELVATISWSGDSTYADSVKGRFTISRDNAKNTVYLQMNSLKPEDTAVYYCATSGDWWGFRYDYWGQGTQVTVSS,low polyreactivity
12,QVQLVESGGGLVQAGGSLRLSCAASGNIFPAYAMGWYRQAPGKERELVATISRRGGGTYYADSVKGRFTISRDNAKNTVYLQMNSLKPEDTAVYYCNVAGWTSAYDYWGQGTQVTVSS,low polyreactivity
13,QVQLVESGGGLVQAGGSLRLSCAASGRTFYSYAMGWYRQAPGKERELVAAISRSGNTYYADSVKGRFTISRDNAKNTVYLQMNSLKPEDTAVYYCAAYYWWGYPENDYWGQGTQVTVSS,high polyreactivity
14,QVQLVESGGGIVEAGVSLRISCAASGSIFTKNAMVWYRPAPGKARELVAAISSGGSTYYADSEKGRFSISRDNAKNTVYLQMNSLKPEDTAVYYCARGASFYLKFYYWGQGTQVTVSS,high polyreactivity
15,QVQLVESGGGLVQAGGSLRLSCAASGLTFYYNAMGWYRQAPGKERELVAAISRSGGSTYYADSVKGRFTISRDNAKNTVYLQMNSLEPEDTAVYYCAAALRKEYDYWGQGTQVTVSS,high polyreactivity
16,QVQLVESGGGIVQPGGRLRLSCAASGSILYGYAMGWYRQAPGKERELVAVITSGGSTNYADTVKGRFTISRDNAKNTVYLQMNSLKPEDTAVYYCAADPYSVYGGDYWGQGTQVTVSS,low polyreactivity
17,QVQLVESGGCLVQAGGSLRLSCAASGRTFRYYAMGWYRQAPGTERELVATITGSGGSTYYADSVKGRFTISRDNAKNTVYLQMTSLKPEDTAVYYCNARKVRYPYRWYDYWGQGTQVTVSS,high polyreactivity
18,QVQLVESGGGLVQAGGSLRLSCAASGITFASYAMGWYRQAPGKERELVAAISRTGGSTYYADSVKGRFTISRDNAKNTVYLQMNSLKPEDTAVYYCAARIPYTGYDYWGQGTQVTVSS,high polyreactivity
19,QVQLVESGGGLVQAGGSLRLSCAASGFIFSRNAMGWYRQAPGKERELVARISRSGGRTYYADSVKGRFTISRDNAKNTVYLLMNSLKPEDTAVYYCATDHVRQSPYDYWGQGTQVTVSS,high polyreactivity
20,QVQLVESGGGLVQAGGSLRLSCAASGRTFYVNTMGWYRQAHGKEKDLVARITRGGSTYYADSVKGRFTISRDNAKNTVYLQMNSLKPEDTAVYYCATDHFPVYSTHVIYEFDYWGQGTQVTVSS,low polyreactivity
21,QVQLVESGGGLVQAGGSLRLSCAASGRTFKGYAMGWYRQAPGKEREFVATITSRGDRTYYADSVKGRFTISRDNAKNTVSLQMNSLKPEDTAVYYCNARYYWKQAADYNYWGQGTQVTVSS,low polyreactivity
22,QVQLVESGGGLVQAGGSLRLSCAASGFTFRANGMGWYRQAPGKERELVATITSGGTTNYADSVKGRFTISRDNAKNTVYLQMNSLKPEDTAVYYCAKRFGPAYFRLYDYWGQGTQVTVSS,low polyreactivity

row,Sequence,polyreactivity (PSR sort gate)
1,QFKLVESGGVLVKEGGRLRLICAASGSTFDENDMGRYRQAPGKEMEIVAVIYIGTSTNYADSVKGRFTISRDNAKNTVYLQMNSLKPEDTAVYYCAADVPGSYLVAIVGNAFNYWGQGTQVTVSS,low polyreactivity
2,QVQLVESGGGLVQAGGSLRLSCAASGSIFLAKAMGWYRQAPGKERELVAAINYADSVKGRFTISRDNAKNTVYLQMNSLKPEDTAVYYCYSKYDYWGQGTQVTVSS,low polyreactivity
3,QVQLVESGGGLVQAGGSLRLSCAASGITFVRYAMGWYRQAPGKERELVATITRRGGSTYYADSVKGRFTISRDNAKNTVYLQMNSLKPEDTAVYYCAADAYIWLYTDFPAYDYWGQGTHVTVSS,high polyreactivity
4,QVQLVESVGGLVQAGGSLRLSCAASGRTFSGNAMGWYIQAPGKERELVAGISTSGGSTYYADSVKGRFTISRDNSKNTVYLQMNSLKPEDTAVYYCNARSRYRYYRSFGGDYWGQGTQVTVSS,high polyreactivity
5,QVQLVESGGGLVQAGGSLRLSCAASGSTFYYYAMGWYRQAPGKERELVAVISWGGGSTYYADSVKGRFTISRDNAKNTVYLQMNSLKPEDTAVYYCAAVYDEYQTSHEYDYWGQGTQVTVSS,low polyreactivity
6,QVQLVESRGGLVQEGGSLRLSCAASGRIFSVYAMGSYRQEPGKERELVASISSGGSTYYADSVMWRFTISRDNAKNTVYLQRTSQKAEDTAVYYCAAGYWTTFRSIYDYWGQGTQVTVSS,low polyreactivity
7,REQLQESGGGLVQAGGSLRLSCAASGTIFIRGDMGWYRQSPGKEREFVATIDTGSNTYYADSEKGRFTISRDNAINAVYLQMYCLKPGYTAVYYCVVDYQLSGRLRYWGQGTQVTLSS,low polyreactivity
8,QVQLVESGGGLVQAGGSLRLSCAASGFIFVRNAMGWYRQAPGKERELVAVITRGGSTYYADSVKGRFTISRDNAKNTVYLQMNSLKPEDTAVYYCDARYYRGTYGRTEGAMDYWGQGTQVTVSS,high polyreactivity
9,QVQLVESGGGLVQAGGSLRLSCAASGIIFRYNAMGWYRQAPGKERELVAVINWRSGGTYYADSVKGRFTISRDNAKNTVYLQMNSLKPDDTADYYCADRVGSWTQSFGYDYWGQGTQVTVSS,high polyreactivity
10,QVQLVESGGGLVQAGGSLRLSCAASGSTFWFYAMGWYRQAPGKERELVAVISNSGSTYYADSVKGRFTISRDNAKNTVYLQMNSLKPEDTAVYYCNKDGGGDSYWYDYWGQATQVTVSS,low polyreactivity
11,QVQLVESGGGLVQAGGSLRLSCAASGSTFYVNAMGWYRQAPGKERELVAGISYNAGSTYYADSVKGRFTISRDNAKNTVSLQMNSLKPEDTAVYYCAAYPYWRWYGYLGYDYWGQGTQVTVSS,low polyreactivity
12,QVQLVESGGGLVQAGGSLRISCAASGGTFTKNAMGWYRQAPGKERELLAAISWRGTSTYYADSVKGRFTISRDNAKNTVYLQMNSLKPEDTAVYYCNTDRYFRRYYWYDYWGQGTQVTVSS,high polyreactivity
13,QVQLVESGGGLVQAGGSLRLSCAATGFTFVYYAMGWYRPAPGKERELVAAISSSGTRTYYADSVKGRFTISRDNAKNTVYLQMNSLKPEDTAVYFCAARNTYRTKVDYWGQGTQVTVSS,high polyreactivity
14,QVQLVESGGGLVQAGGSLRLSCAASGFISAGYAMGWYRQAPGKERELVAAISRRGGRTYYADSVKGRFTISRDNAKNTVYLQLNSLKPEDTAVYYCAAGSPHSAFAGPYDYWGQGTQVTVSS,high polyreactivity
15,QVQLVESGGGLVQAGGSLRLSCAASGIIFYVNAMGWYRQAPGKERDLVAAITFGGDSTYYADSVKGRFTISRDNAMNTVSVQMNSLKPEDTAVYYCATDGDPAYPEMEYLGQGTQVTVSS,low polyreactivity
16,QVQLVESGGGLVQAGGSLRLSCAASGFTFSAYTMGWYRQAPGKERELVADISSRGGSTYYADSVKGRFTISRDNAKNTVYLQMNSLKPEDTAVYYCAAVWYWTQDYDYWGQGTQVTVSS,low polyreactivity
17,QVQLVESGGGLVQAGGSLRLSCAASGRIFGRYAMGWYRQAPGKERGLVAAITRRGGNTYYADSVKGRFTISRDNAKNTVYLQMNSLKPEDTAVYYCNDDTSTYAIRGQWSWYDYWGQGTQVTVSS,high polyreactivity
18,QVQLVESVGGLVQAGGSLRLSCAASGRTVGGNAMGWYRQAPGKERELVAAINRSGGTTYYADSVKGRFTISRDNAKNTVYLQMNSLKPEDTAVYYCAARRTVSATRMGYWGQGTQVTVSS,high polyreactivity
19,QVQLVESGGGLVQAGGSLRLSCAASGSTFYYYAMGWYRQAPGKERELVAAITYRGGSTYYADSVKGLFTISRDNAKNTVYLQMNSLKPEDTAVYYCSKVGYKTSSIRYGYWGQGTQVTVSS,high polyreactivity
20,QVQLVEAGGGLVQAGGRLRLSCAASGSIFRRNAMGWYRQAPGTERELVASISSSGGSTYYADSVKGRFTLSRDNAMNTVYLQMNSLKPEDTAVYYCNAYRIRPGTPYGNGYYYWGQGTQVTGSS,high polyreactivity
21,QVQLVESGGGLVQAGGSLRLSCAASGRTFIYYAMGWYRQAPGKERELVAGISRNGGRTYYADSVKGRFTISRDNAKNTVYLQMNSLKPEDTAVYYCNARTYSYRGYNYWGQGTQVTVSS,high polyreactivity
